Measured values from article PMC6917767.

Legend:
PARP1 = PARP1 (UniProt P09874); experiment: BLI, nucleosome immobilised, PARP1 titrated; details: reference: H2A.X nucleosome; sites S139
[1] = biological target: 145 bp nucleosome core particle (NCP) with H2A (human); experiment: SPR; Biacore 3000, room temperature, 10 ul/min; nucleosome/NCP with biotinylated DNA (600-700 RU) immobilised on CM5 chips with neutravidin; 20 mM Tris pH 7.5, 150 mM NaCl; PARP1 1.15-18.5 nM or NPARP1 2.32-37 nM injected; kinetic titration, 1:1 fit
[2] = biological target: NUC155, nucleosome with a single double-helical turn linker DNA at one terminus (H2A) (human); experiment: as above
[3] = biological target: NUC167, nucleosome with a single double-helical turn linker DNA at both termini (H2A) (human); experiment: as above
[4] = biological target: 145 bp nucleosome core particle assembled with H2A (NCP) (human) (UniProt P06899); experiment: SPR; Biacore 3000, room temperature, 10 ul/min; nucleosome/NCP with biotinylated DNA (600-700 RU) immobilised on CM5 chips with neutravidin; PARP1 (1.15-18.5 nM) or NPARP1 (2.32-37 nM) injected consecutively (kinetic titration, 1:1 fit); 20 mM Tris pH 7.5, 150 mM NaCl
[5] = biological target: nucleosome with a single double-helical turn linker DNA at both termini, assembled with H2A (NUC167) (human) (UniProt P06899); experiment: as above
[6] = biological target: nucleosome with a single double-helical turn linker DNA at one terminus, assembled with H2A (NUC155) (human) (UniProt P06899); experiment: as above
[7] = biological target: NUC167 with H2A.X in place of H2A (human) (UniProt P16104); experiment: BLI; Octet RED96e, 25 C; biotinylated nucleosome captured on streptavidin biosensors; PARP1 0.195-3.125 nM in PBST pH 7.4; association 120 s, dissociation 15 min; 1:1 model
[8] = biological target: NUC167 with H2A.X-S139E (mutant mimic of γH2A.X) in place of H2A (human); experiment: as above
[9] = biological target: NUC167 with γH2A.X [H2A.X (pS139)] in place of H2A (human) (UniProt P16104); experiment: as above
[10] = biological target: NUC167, nucleosome with a single double-helical turn linker DNA at both termini (H2A) (human); experiment: as above
[11] = biological target: NUC167 nucleosome assembled with H2A.X in place of H2A (human) (UniProt P06899); experiment: BLI; Octet RED96e, 25 °C; biotinylated nucleosome captured on streptavidin biosensors; PARP1 0.195-3.125 nM in PBST pH 7.4 (150 mM NaCl, 0.05% Tween-20); association 120 s, dissociation 15 min; 1:1 model
[12] = biological target: NUC167 nucleosome assembled with H2A.X-S139E (mutant mimic of γH2A.X) in place of H2A (human) (UniProt P06899); experiment: as above
[13] = biological target: NUC167 nucleosome assembled with γH2A.X [H2A.X (pS139)] in place of H2A (human) (UniProt P06899); experiment: as above
[14] = biological target: nucleosome with a single double-helical turn linker DNA at both termini, assembled with H2A (NUC167) (human) (UniProt P06899); experiment: as above

| Kd [1] [nM] | koff [1] [s⁻¹] | kon [1] [M⁻¹ s⁻¹] | Kd [2] [nM] | koff [2] [s⁻¹] | kon [2] [M⁻¹ s⁻¹] | koff [3] [s⁻¹] | kon [3] [M⁻¹ s⁻¹] | Kd [4] [nM] | koff [4] [s⁻¹] | kon [4] [M⁻¹ s⁻¹] | koff [5] [s⁻¹] | kon [5] [M⁻¹ s⁻¹] | Kd [6] [nM] | koff [6] [s⁻¹] | kon [6] [M⁻¹ s⁻¹] | Substance | KD (PARP1) | further results |
| --- | --- | --- | --- | --- | --- | --- | --- | --- | --- | --- | --- | --- | --- | --- | --- | --- | --- | --- |
|  |  |  |  |  |  |  |  |  |  |  |  |  |  |  |  | H2A.X (from UniProt P16104) H2A.X-S139E nucleosome | stronger; reference 73.2 ± 0.3 |  |
|  |  |  |  |  |  |  |  |  |  |  |  |  |  |  |  | H2A.X (from UniProt P16104) γH2A.X (pS139) nucleosome | stronger; reference 73.2 ± 0.3 |  |
| 187 | 0.00424 | 22600 | 17.3 | 0.00107 | 61900 | 0.0244 | 3e+06 |  |  |  |  |  |  |  |  | NPARP1 (N-terminal half of PARP1, amino acids 1-486) (from UniProt P09874 1-486) (domain or fragment) |  | Kd [3]: 8.13 nM |
|  |  |  |  |  |  |  |  | 187 | 0.00424 | 22600 | 0.0244 | 3e+06 | 17.3 | 0.00107 | 61900 | NPARP1 (N-terminal half of PARP1, amino acids 1-486, lacking the WGR and catalytic domains) (from UniProt P09874 1-486) (domain or fragment) |  | Kd [5]: 8.13 nM |
| 0.701 | 0.000743 | 1.06e+06 | 0.554 | 0.00107 | 1.93e+06 | 0.000562 | 2.28e+06 |  |  |  |  |  |  |  |  | PARP1 (poly(ADP-ribose) polymerase 1) (from UniProt P09874 1-1014) (enzyme) |  | koff [7]: 0.000274 s⁻¹; kon [7]: 3.75e+06 M⁻¹ s⁻¹; koff [8]: 0.000328 s⁻¹; kon [8]: 7.5e+06 M⁻¹ s⁻¹; koff [9]: 0.000116 s⁻¹; kon [9]: 2.43e+06 M⁻¹ s⁻¹; koff [10]: 0.000158 s⁻¹; kon [10]: 825000 M⁻¹ s⁻¹ |
|  |  |  |  |  |  |  |  | 0.701 | 0.000743 | 1.06e+06 | 0.000562 | 2.28e+06 | 0.554 | 0.00107 | 1.93e+06 | poly(ADP-ribose) polymerase 1 (PARP1), full-length (from UniProt P09874 1-1014) (enzyme) |  | koff [11]: 0.000274 s⁻¹; kon [11]: 3.75e+06 M⁻¹ s⁻¹; koff [12]: 0.000328 s⁻¹; kon [12]: 7.5e+06 M⁻¹ s⁻¹; koff [13]: 0.000116 s⁻¹; kon [13]: 2.43e+06 M⁻¹ s⁻¹; koff [14]: 0.000158 s⁻¹; kon [14]: 825000 M⁻¹ s⁻¹ |
